Laboratory results reported in the supplement of paper PMC10126150.
± gives the standard deviation of the averaged measurements.

Tested on: ATP
Test: switch fluorescence ratio, 500 uM ATP over buffer (Cy3 cluster intensity, sum of 5 cycles each) (fold (ratio)); higher = stronger signal-on switching upon ATP binding; sequences stand for … in TCGTCGGCAGCGTCAGATGTGTATAAGAGACAGTTTTTTTTTTTTTTTTTTTTTTTTT…TC
Details: aptamer strand: ATP DNA aptamer (quencher-CACCTGGGGGAGTATTGCGGAGGAAGG + anchor), 100 nM annealed; ATP concentration: 500 uM
Procedure, shortened: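 After annealing to 100 nM quencher-labelled ATP aptamer, Cy3-labelled switching-strand clusters on a modified Illumina MiSeq flow-cell were imaged in selection buffer. A second image followed after 15 min with 500 uM ATP at 22 °C, and five such buffer/ATP cycles were done, each separated by NaOH stripping and re-annealing. The fluorescence ratio, averaged per switch-domain sequence, is summed target-cycle over summed buffer-cycle Cy3 intensity per cluster, with clusters outside 100-1000 RFU excluded.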
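Also: ATP exposure 15 min at 22 °C before imaging.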

AGTGGAGCGG
switch fluorescence ratio: 0.995 ± 0.016

AAGGTGTAGC
switch fluorescence ratio: 0.9839 ± 0.0091

TTTGTGTTGG
switch fluorescence ratio: 0.993 ± 0.027

CAGGAGGGGA
switch fluorescence ratio: 1.01 ± 0.011

CTTTTAGTTG
switch fluorescence ratio: 0.993 ± 0.017

AGAATGTAAT
switch fluorescence ratio: 0.9591 ± 0.0014

GATATTATCA
switch fluorescence ratio: 1.017 ± 0.0049

GGGAGAGCGT
switch fluorescence ratio: 0.966 ± 0.018

CATAGGTACA
switch fluorescence ratio: 1.089 ± 0.0035

GGTATATGTT
switch fluorescence ratio: 1.01 ± 0.015

TTTCAGAAGG
switch fluorescence ratio: 1.01 ± 0.023

TTGCTTTTCG
switch fluorescence ratio: 0.974 ± 0.015

GAGGTCGGGC
switch fluorescence ratio: 0.94 ± 0.039

TGGACGTGTC
switch fluorescence ratio: 1 ± 0.019

AGTAAGTTTT
switch fluorescence ratio: 1.032 ± 0.0011

AAAGGATACG
switch fluorescence ratio: 1.01 ± 0.034

TTTGCCCCGG
switch fluorescence ratio: 1.12 ± 0.12

TCAATGGGGG
switch fluorescence ratio: 0.985 ± 0.062

ACGAGAGAAA
switch fluorescence ratio: 0.974 ± 0.017

CGTCGCCGGT
switch fluorescence ratio: 1 ± 0.0078

TTTTTTAACA
switch fluorescence ratio: 1.01 ± 0.027

TTATCTGTTA
switch fluorescence ratio: 1.014 ± 0.0018

AGAGAGGGTT
switch fluorescence ratio: 0.986 ± 0.019

TTAGACATTT
switch fluorescence ratio: 1.01 ± 0.026

ATCGACATAT
switch fluorescence ratio: 1.043 ± 0.0031

CGTTAGAGAG
switch fluorescence ratio: 0.99 ± 0.03

CAGATGTGAC
switch fluorescence ratio: 1.057 ± 0.0061

GGTATTGAGT
switch fluorescence ratio: 0.992 ± 0.03

AATCCTGGCG
switch fluorescence ratio: 1.01 ± 0.032

CCGGGGGCTA
switch fluorescence ratio: 2.69 ± 1.9

ATAGGGGGGG
switch fluorescence ratio: 1.03 ± 0.025

TACTCGTCTA
switch fluorescence ratio: 1.02 ± 0.018

TGGGATTTTT
switch fluorescence ratio: 0.985 ± 0.031

CGCGTCAGCC
switch fluorescence ratio: 0.979 ± 0.073

GAGAGTAATT
switch fluorescence ratio: 1.01 ± 0.051

AGGTTGCATG
switch fluorescence ratio: 1.02 ± 0.079

TATCCTTTGA
switch fluorescence ratio: 1.002 ± 0.0014

GGTTTTTAGA
switch fluorescence ratio: 1 ± 0.013

CGGGTATTTT
switch fluorescence ratio: 0.9878 ± 0.0043

TGTTACCAGC
switch fluorescence ratio: 1.01 ± 0.014

GGCCCATAGC
switch fluorescence ratio: 0.986 ± 0.018

GAGCAAAAAG
switch fluorescence ratio: 1.05 ± 0.042

TCAGCGTTTC
switch fluorescence ratio: 1.05 ± 0.027

AGAAATGTTA
switch fluorescence ratio: 1.024 ± 0.0063

AGCGGTGGGA
switch fluorescence ratio: 1.02 ± 0.032

TTTCCGGGTG
switch fluorescence ratio: 2.5 ± 1.1

GGGCGGGATT
switch fluorescence ratio: 1 ± 0.059

AATATTGGAT
switch fluorescence ratio: 1.01 ± 0.023

GCTTTTTGGC
switch fluorescence ratio: 1.03 ± 0.063

GGGTTAAGTT
switch fluorescence ratio: 1 ± 0.027

TTGAGAAATT
switch fluorescence ratio: 1 ± 0.014

ATTGCTTACG
switch fluorescence ratio: 1.14 ± 0.19

AGTGCTGCGA
switch fluorescence ratio: 1.02 ± 0.044

GGAGCGGCGG
switch fluorescence ratio: 1.02 ± 0.069

GAAGGCGGTT
switch fluorescence ratio: 1.029 ± 0.0037

CTCATGACGG
switch fluorescence ratio: 1.044 ± 0.0061

GGCGTAAAGT
switch fluorescence ratio: 1.02 ± 0.036

TTGGGCAGGA
switch fluorescence ratio: 1.06 ± 0.047

GATGGAGGGC
switch fluorescence ratio: 1.05 ± 0.039

TAGTGCGGTA
switch fluorescence ratio: 1.036 ± 0.0022

GTATCAGGGC
switch fluorescence ratio: 1.04 ± 0.033

GTGGTTAAAA
switch fluorescence ratio: 0.998 ± 0.012

TGCTAACAGG
switch fluorescence ratio: 1.022 ± 0.0078

TGTATTTGGG
switch fluorescence ratio: 0.991 ± 0.013

ATGATAGAAC
switch fluorescence ratio: 1.03 ± 0.015

TGAGGAAAGA
switch fluorescence ratio: 0.988 ± 0.035

AGTGCGCTAT
switch fluorescence ratio: 1.03 ± 0.01

TCAGGTTCGT
switch fluorescence ratio: 0.987 ± 0.01

AAGTTGGGTT
switch fluorescence ratio: 0.9633 ± 0.0079

ATTTACTCGT
switch fluorescence ratio: 1.014 ± 0.0017

AGGTTCATTA
switch fluorescence ratio: 1.01 ± 0.023

CCTTAGGTTT
switch fluorescence ratio: 1.002 ± 0.0011

TACTGGATGA
switch fluorescence ratio: 0.991 ± 0.029

TAATGTGGGT
switch fluorescence ratio: 0.967 ± 0.015

GCTGTAGTTT
switch fluorescence ratio: 0.973 ± 0.015

TTAATAGATT
switch fluorescence ratio: 0.998 ± 0.021

AATGTGAATG
switch fluorescence ratio: 0.992 ± 0.021

TTTGACAGTG
switch fluorescence ratio: 0.966 ± 0.071

CCCAATTTGA
switch fluorescence ratio: 1.06 ± 0.014

CGTAAAATCG
switch fluorescence ratio: 0.995 ± 0.042

AAAAGGGCAG
switch fluorescence ratio: 0.986 ± 0.031

GGGGTACTAC
switch fluorescence ratio: 1.003 ± 0.0053

TGACATGGTG
switch fluorescence ratio: 0.976 ± 0.018

ACGGGGAGGT
switch fluorescence ratio: 0.981 ± 0.04

GGGGGTCG
switch fluorescence ratio: 1.03 ± 0.081

TATGGCGGAG
switch fluorescence ratio: 0.9975 ± 0.0061

TTTTAGTAAC
switch fluorescence ratio: 1.02 ± 0.017

ACGGGACGGG
switch fluorescence ratio: 1.02 ± 0.035

CGTGTGAGGG
switch fluorescence ratio: 1.01 ± 0.015

CTGTGAGGCT
switch fluorescence ratio: 1 ± 0.042

GGTTGCATCA
switch fluorescence ratio: 0.994 ± 0.032

AGGGAATGTA
switch fluorescence ratio: 0.99 ± 0.016

CTTAGCGGGA
switch fluorescence ratio: 1.02 ± 0.025

GTTGTTACGG
switch fluorescence ratio: 1.01 ± 0.037

GCTCTAATGC
switch fluorescence ratio: 1.17 ± 0.096

GGCTTAGGCA
switch fluorescence ratio: 1.01 ± 0.04

GCAGGGCGCC
switch fluorescence ratio: 1.01 ± 0.026

CTTTATGCGA
switch fluorescence ratio: 1.033 ± 0.0093

TTAGTCTGAT
switch fluorescence ratio: 1 ± 0.038

AAAATGCCAC
switch fluorescence ratio: 1.04 ± 0.024

CCGTTGTAAG
switch fluorescence ratio: 1.0184 ± 0.001

TTTGAAAGGA
switch fluorescence ratio: 1.01 ± 0.032

TCTTATTCAA
switch fluorescence ratio: 0.98 ± 0.012

TTAGGAGGGG
switch fluorescence ratio: 1.03 ± 0.11

TGAAGTGAAC
switch fluorescence ratio: 1.17 ± 0.22

ATACCTTATG
switch fluorescence ratio: 1 ± 0.029

AGATTATAGC
switch fluorescence ratio: 1.02 ± 0.045

CCGGGGGGAG
switch fluorescence ratio: 1.02 ± 0.045

TTGGCATGTT
switch fluorescence ratio: 1.005 ± 0.0093

TTAACGCCTC
switch fluorescence ratio: 1.0315 ± 0.001

GTAGACGGGT
switch fluorescence ratio: 1.03 ± 0.031

CGAAGAAAGG
switch fluorescence ratio: 1.16 ± 0.013

AATTGTTCGT
switch fluorescence ratio: 0.98 ± 0.036

AAGTACGAGG
switch fluorescence ratio: 1.27 ± 0.17

GAGGCAGAAT
switch fluorescence ratio: 1.03 ± 0.012

AAGGGGGGTG
switch fluorescence ratio: 1.03 ± 0.048

CCCGTAGGCT
switch fluorescence ratio: 0.973 ± 0.014

GACCTTTGAG
switch fluorescence ratio: 1.017 ± 0.0045

ATCTGATATT
switch fluorescence ratio: 1.01 ± 0.033

TCTTTGTTG
switch fluorescence ratio: 1.02 ± 0.02

GCTGTTCATG
switch fluorescence ratio: 0.993 ± 0.015

GCGGTCAGGG
switch fluorescence ratio: 1.01 ± 0.016

AGGTAGGGGC
switch fluorescence ratio: 1.02 ± 0.026

ATTTTTTTAT
switch fluorescence ratio: 0.995 ± 0.017

AGTAAGGGTA
switch fluorescence ratio: 1.0185 ± 0.00081

GAAGTTGGTG
switch fluorescence ratio: 0.987 ± 0.026

GGAAGGTAAT
switch fluorescence ratio: 1 ± 0.048

GATTTCCGTG
switch fluorescence ratio: 0.98686 ± 0.00065

TATTCGTATT
switch fluorescence ratio: 0.981 ± 0.029

AGGGTTGCGA
switch fluorescence ratio: 1.02 ± 0.025

GCCACGTCAA
switch fluorescence ratio: 1.06 ± 0.067

TAGTGTCTTT
switch fluorescence ratio: 0.993 ± 0.014

GAGTGTAAGA
switch fluorescence ratio: 1 ± 0.034

CTGTAGGTGT
switch fluorescence ratio: 1.06 ± 0.029

GAGCTGACTT
switch fluorescence ratio: 1.02 ± 0.016

CCAGTAATTG
switch fluorescence ratio: 1.04 ± 0.022

GAAAGTTAGG
switch fluorescence ratio: 1.1 ± 0.14

ATTGTATTG
switch fluorescence ratio: 0.986 ± 0.014

CGATTTTGTA
switch fluorescence ratio: 1.01 ± 0.051

CATCTGATGC
switch fluorescence ratio: 1.08 ± 0.015

AATTTGACCC
switch fluorescence ratio: 0.9966 ± 0.0026

TTGTAGAGGG
switch fluorescence ratio: 1.01 ± 0.029

TGAGAGAGAA
switch fluorescence ratio: 1.01 ± 0.019

CTGTCTGGGG
switch fluorescence ratio: 0.9737 ± 0.0033

TTTAAGGGCG
switch fluorescence ratio: 0.981 ± 0.045

TTAGGGAACA
switch fluorescence ratio: 1.16 ± 0.16

CTTATAGTTT
switch fluorescence ratio: 1.01 ± 0.016

AATTAGTTGC
switch fluorescence ratio: 0.989 ± 0.016

TTTCGTTTTT
switch fluorescence ratio: 0.991 ± 0.038

CGGCTACATT
switch fluorescence ratio: 0.9995 ± 0.0034

AAAAAGTCTT
switch fluorescence ratio: 1 ± 0.015

AAGTGCTGTG
switch fluorescence ratio: 0.996 ± 0.029

TAAATTGTCG
switch fluorescence ratio: 0.994 ± 0.053
